In patent US20260167721A1 (ABLEXIS, published 2026):

Columns and labels:
[1] = biological target: T1, human CD3 (on human Pan-T cells or donor PBMC) (human, UniProt P07766 23-207; P04234 22-171; P09693 23-182; P20963 22-164); test: cell-based or functional assay
[2] = biological target: T1, human CD3 (on human Pan-T cells or …); test: cell-based or functional assay; remark: listed apart in the source

T1 sequence (P07766 23-207, chain 1 of 4): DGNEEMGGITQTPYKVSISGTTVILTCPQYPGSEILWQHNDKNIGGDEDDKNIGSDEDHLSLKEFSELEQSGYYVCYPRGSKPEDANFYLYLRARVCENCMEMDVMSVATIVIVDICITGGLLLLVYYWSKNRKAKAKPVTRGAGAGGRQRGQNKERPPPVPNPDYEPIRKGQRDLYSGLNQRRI
T1 sequence (P04234 22-171, chain 2 of 4): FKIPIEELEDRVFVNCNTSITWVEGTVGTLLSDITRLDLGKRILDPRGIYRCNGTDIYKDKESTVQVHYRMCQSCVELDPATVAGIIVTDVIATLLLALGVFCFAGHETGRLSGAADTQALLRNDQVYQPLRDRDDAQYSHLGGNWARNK
T1 sequence (P09693 23-182, chain 3 of 4): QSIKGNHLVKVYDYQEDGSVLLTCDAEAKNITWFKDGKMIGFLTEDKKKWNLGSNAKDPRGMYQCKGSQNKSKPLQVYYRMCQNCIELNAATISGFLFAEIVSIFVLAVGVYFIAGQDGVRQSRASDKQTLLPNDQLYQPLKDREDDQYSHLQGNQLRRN
T1 sequence (P20963 22-164, chain 4 of 4): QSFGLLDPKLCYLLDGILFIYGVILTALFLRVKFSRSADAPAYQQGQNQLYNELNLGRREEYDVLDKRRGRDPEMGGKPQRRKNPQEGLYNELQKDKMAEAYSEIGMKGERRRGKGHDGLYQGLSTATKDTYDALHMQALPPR

Row | Binder | RTCC Assay, Donor 0, EC50 [1] | RTCC Assay, Donor 0, gMFI max [1] | RTCC Assay, Donor 1, EC50 [1] | RTCC Assay, Donor 1, gMFI max [1] | RTCC Assay, Donor 2, EC50 [1] | RTCC Assay, Donor 2, gMFI max [1] | RTCC Assay, Donor 3, EC50 [1] | RTCC Assay, Donor 3, gMFI max [1] | Cytokine Release Assay (IFNγ), Donor 0, gMFI max [2] | Cytokine Release Assay (IFNγ), Donor 1, gMFI max [2] | Cytokine Release Assay (IFNγ), Donor 2, EC50 [2] | Cytokine Release Assay (IFNγ), Donor 2, gMFI max [2] | Cytokine Release Assay (IFNγ), Donor 3, EC50 [2] | Cytokine Release Assay (IFNγ), Donor 3, gMFI max [2] | Cytokine Release Assay (IFNγ), Donor 0, EC50 [2] | Cytokine Release Assay (IFNγ), Donor 1, EC50 [2]
1 | CD3 × CD33-BspAb45 (bispecific antibody) chain 1: EVQLVESGGGLVQPGGSLRLSCAASGFTFSRYSMNWVRQAPGKCLEWVSYISSSSSSIYYADSVKGRFTISRDNAKNSLYLQMNSLRDEDTAVYYCARDRRATLDYWGQGTLVTVSSGGGGSGGGGSGGGGSGGGGSNFMLTQPHSVSESPGKTVTISCTRSSGSIASNYVQWYQQRPGSSPTTVIYEDNQRPSGVPDRFSGSIDSSSNSASLTISGLKTEDEADYYCQSYDSSNHVFGCGTKLTVLDKTHTCPPCPAPEFEGGPSVFLFPPKPKDTLMISRTPEVTCVVVDVSHEDPEVKFNWYVDGVEVHNAKTKPREEQYNSTYRVVSVLTVLHQDWLNGKEYKCKVSNKALPASIEKTISKAKGQPREPQVYTLPPCREEMTKNQVSLWCLVKGFYPSDIAVEWESNGQPENNYKTTPPVLDSDGSFFLYSKLTVDKSRWQQGNVFSCSVMHEALHNHYTQKSLSLSPGK chain 2: EVQLVQSGAEVKKPGSSVKVSCKASGYTITDSNIHWVRQAPGQSLEWIGYIYPYNGGTDYNQKFKNRATLTVDNPTNTAYMELSSLRSEDTAFYYCVNGNPWLAYWGQGTLVTVSSASTKGPSVFPLAPSSKSTSGGTAALGCLVKDYFPEPVTVSWNSGALTSGVHTFPAVLQSSGLYSLSSVVTVPSSSLGTQTYICNVNHKPSNTKVDKRVEPKSCDKTHTCPPCPAPEFEGGPSVFLFPPKPKDTLMISRTPEVTCVVVDVSHEDPEVKFNWYVDGVEVHNAKTKPREEQYNSTYRVVSVLTVLHQDWLNGKEYKCKVSNKALPASIEKTISKAKGQPREPQVCTLPPSREEMTKNQVSLSCAVKGFYPSDIAVEWESNGQPENNYKTTPPVLDSDGSFFLVSKLTVDKSRWQQGNVFSCSVMHEALHNRFTQKSLSLSPGK chain 3: DIQLTQSPSTLSASVGDRVTITCRASESLDNYGIRFLTWFQQKPGKAPKLLMYAASNQGSGVPSRFSGSGSGTEFTLTISSLQPDDFATYYCQQTKEVPWSFGQGTKVEVKRTVAAPSVFIFPPSDEQLKSGTASVVCLLNNFYPREAKVQWKVDNALQSGNSQESVTEQDSKDSTYSLSSTLTLSKADYEKHKVYACEVTHQGLSSPVTKSFNRGEC | 0.03 nM | 23300 gMFI | 0.004 nM | 76100 gMFI | 0.012 nM | 55900 gMFI | 0.02 nM | 86700 gMFI | 1.39e+06 gMFI | 4630 gMFI | 0.0684 nM | 26900 gMFI |  | 290000 gMFI | 0.096 nM | 
2 | CD3 × CD33-BspAb37 (bispecific antibody) chain 1: not shown chain 2: EVQLVQSGAEVKKPGSSVKVSCKASGYTITDSNIHWVRQAPGQSLEWIGYIYPYNGGTDYNQKFKNRATLTVDNPTNTAYMELSSLRSEDTAFYYCVNGNPWLAYWGQGTLVTVSSASTKGPSVFPLAPSSKSTSGGTAALGCLVKDYFPEPVTVSWNSGALTSGVHTFPAVLQSSGLYSLSSVVTVPSSSLGTQTYICNVNHKPSNTKVDKRVEPKSCDKTHTCPPCPAPEFEGGPSVFLFPPKPKDTLMISRTPEVTCVVVDVSHEDPEVKFNWYVDGVEVHNAKTKPREEQYNSTYRVVSVLTVLHQDWLNGKEYKCKVSNKALPASIEKTISKAKGQPREPQVCTLPPSREEMTKNQVSLSCAVKGFYPSDIAVEWESNGQPENNYKTTPPVLDSDGSFFLVSKLTVDKSRWQQGNVFSCSVMHEALHNRFTQKSLSLSPGK chain 3: DIQLTQSPSTLSASVGDRVTITCRASESLDNYGIRFLTWFQQKPGKAPKLLMYAASNQGSGVPSRFSGSGSGTEFTLTISSLQPDDFATYYCQQTKEVPWSFGQGTKVEVKRTVAAPSVFIFPPSDEQLKSGTASVVCLLNNFYPREAKVQWKVDNALQSGNSQESVTEQDSKDSTYSLSSTLTLSKADYEKHKVYACEVTHQGLSSPVTKSFNRGEC | 0.172 nM | 31600 gMFI | 0.01 nM | 70600 gMFI | 0.042 nM | 59200 gMFI | 0.053 nM | 82300 gMFI | 1.06e+06 gMFI | 5560 gMFI | 0.14 nM | 32900 gMFI | 1.76 nM | 317000 gMFI | 0.252 nM | 

Continued, values first:

Row | RTCC Assay, Donor 0, EC50 [1] | RTCC Assay, Donor 0, gMFI max [1] | RTCC Assay, Donor 1, EC50 [1] | RTCC Assay, Donor 1, gMFI max [1] | RTCC Assay, Donor 2, EC50 [1] | RTCC Assay, Donor 2, gMFI max [1] | RTCC Assay, Donor 3, EC50 [1] | RTCC Assay, Donor 3, gMFI max [1] | Cytokine Release Assay (IFNγ), Donor 0, gMFI max [2] | Cytokine Release Assay (IFNγ), Donor 1, gMFI max [2] | Cytokine Release Assay (IFNγ), Donor 2, EC50 [2] | Cytokine Release Assay (IFNγ), Donor 2, gMFI max [2] | Cytokine Release Assay (IFNγ), Donor 3, EC50 [2] | Cytokine Release Assay (IFNγ), Donor 3, gMFI max [2] | Cytokine Release Assay (IFNγ), Donor 0, EC50 [2] | Cytokine Release Assay (IFNγ), Donor 1, EC50 [2] | Binder
3 | 0.126 nM | 24500 gMFI | 0.045 nM | 66000 gMFI | 0.121 nM | 52800 gMFI | 0.171 nM | 65800 gMFI | 187000 gMFI | 5440 gMFI | 0.177 nM | 14100 gMFI | 1.51 nM | 167000 gMFI |  |  | CD3 × CD33-BspAb116 (bispecific antibody) chain 1: NFMLTQPHSVSESPGKTVTISCTRSSGSIASNYVQWYQQRPGSSPTTVIYEDNQRPSGVPDRFSGSIDSSSNSASLTISGLKTEDEAYYYCQSFDSSNRVFGCGTKLTVLGGGGSGGGGSGGGGSGGGGSQVQLQESGPGLVKPSQTLSLTCTVSGGSISSGGYYWSWIRQHPGKCLEWIGYIYYSGSTYYNPSLKSRVTISVDTSKDQFSLKLSSVTAADTAVYYCARERKTSLPFDIWGQGTMVTVSSDKTHTCPPCPAPEFEGGPSVFLFPPKPKDTLMISRTPEVTCVVVDVSHEDPEVKFNWYVDGVEVHNAKTKPREEQYNSTYRVVSVLTVLHQDWLNGKEYKCKVSNKALPASIEKTISKAKGQPREPQVYTLPPCREEMTKNQVSLWCLVKGFYPSDIAVEWESNGQPENNYKTTPPVLDSDGSFFLYSKLTVDKSRWQQGNVFSCSVMHEALHNHYTQKSLSLSPGK chain 2: EVQLVQSGAEVKKPGSSVKVSCKASGYTITDSNIHWVRQAPGQSLEWIGYIYPYNGGTDYNQKFKNRATLTVDNPTNTAYMELSSLRSEDTAFYYCVNGNPWLAYWGQGTLVTVSSASTKGPSVFPLAPSSKSTSGGTAALGCLVKDYFPEPVTVSWNSGALTSGVHTFPAVLQSSGLYSLSSVVTVPSSSLGTQTYICNVNHKPSNTKVDKRVEPKSCDKTHTCPPCPAPEFEGGPSVFLFPPKPKDTLMISRTPEVTCVVVDVSHEDPEVKFNWYVDGVEVHNAKTKPREEQYNSTYRVVSVLTVLHQDWLNGKEYKCKVSNKALPASIEKTISKAKGQPREPQVCTLPPSREEMTKNQVSLSCAVKGFYPSDIAVEWESNGQPENNYKTTPPVLDSDGSFFLVSKLTVDKSRWQQGNVFSCSVMHEALHNRFTQKSLSLSPGK chain 3: DIQLTQSPSTLSASVGDRVTITCRASESLDNYGIRFLTWFQQKPGKAPKLLMYAASNQGSGVPSRFSGSGSGTEFTLTISSLQPDDFATYYCQQTKEVPWSFGQGTKVEVKRTVAAPSVFIFPPSDEQLKSGTASVVCLLNNFYPREAKVQWKVDNALQSGNSQESVTEQDSKDSTYSLSSTLTLSKADYEKHKVYACEVTHQGLSSPVTKSFNRGEC
4 | 0.2 nM | 28400 gMFI | 0.036 nM | 66900 gMFI | 0.05 nM | 55800 gMFI | 0.085 nM | 80600 gMFI | 1.34e+06 gMFI | 10800 gMFI | 0.292 nM | 30600 gMFI | 0.214 nM | 355000 gMFI | 0.269 nM | 15.3 nM | CD3 × CD33-BspAb51 (bispecific antibody) chain 1: not shown chain 2: EVQLVQSGAEVKKPGSSVKVSCKASGYTITDSNIHWVRQAPGQSLEWIGYIYPYNGGTDYNQKFKNRATLTVDNPTNTAYMELSSLRSEDTAFYYCVNGNPWLAYWGQGTLVTVSSASTKGPSVFPLAPSSKSTSGGTAALGCLVKDYFPEPVTVSWNSGALTSGVHTFPAVLQSSGLYSLSSVVTVPSSSLGTQTYICNVNHKPSNTKVDKRVEPKSCDKTHTCPPCPAPEFEGGPSVFLFPPKPKDTLMISRTPEVTCVVVDVSHEDPEVKFNWYVDGVEVHNAKTKPREEQYNSTYRVVSVLTVLHQDWLNGKEYKCKVSNKALPASIEKTISKAKGQPREPQVCTLPPSREEMTKNQVSLSCAVKGFYPSDIAVEWESNGQPENNYKTTPPVLDSDGSFFLVSKLTVDKSRWQQGNVFSCSVMHEALHNRFTQKSLSLSPGK chain 3: DIQLTQSPSTLSASVGDRVTITCRASESLDNYGIRFLTWFQQKPGKAPKLLMYAASNQGSGVPSRFSGSGSGTEFTLTISSLQPDDFATYYCQQTKEVPWSFGQGTKVEVKRTVAAPSVFIFPPSDEQLKSGTASVVCLLNNFYPREAKVQWKVDNALQSGNSQESVTEQDSKDSTYSLSSTLTLSKADYEKHKVYACEVTHQGLSSPVTKSFNRGEC
5 | 1.49 nM | 23300 gMFI | 0.413 nM | 64800 gMFI | 0.717 nM | 50500 gMFI | 1.72 nM | 75800 gMFI | 555000 gMFI | 4320 gMFI | 13.4 nM | 18000 gMFI | 6.38 nM | 98500 gMFI | 8.38 nM |  | CD3 × CD33-BspAb38 (bispecific antibody) chain 1: not shown chain 2: EVQLVQSGAEVKKPGSSVKVSCKASGYTITDSNIHWVRQAPGQSLEWIGYIYPYNGGTDYNQKFKNRATLTVDNPTNTAYMELSSLRSEDTAFYYCVNGNPWLAYWGQGTLVTVSSASTKGPSVFPLAPSSKSTSGGTAALGCLVKDYFPEPVTVSWNSGALTSGVHTFPAVLQSSGLYSLSSVVTVPSSSLGTQTYICNVNHKPSNTKVDKRVEPKSCDKTHTCPPCPAPEFEGGPSVFLFPPKPKDTLMISRTPEVTCVVVDVSHEDPEVKFNWYVDGVEVHNAKTKPREEQYNSTYRVVSVLTVLHQDWLNGKEYKCKVSNKALPASIEKTISKAKGQPREPQVCTLPPSREEMTKNQVSLSCAVKGFYPSDIAVEWESNGQPENNYKTTPPVLDSDGSFFLVSKLTVDKSRWQQGNVFSCSVMHEALHNRFTQKSLSLSPGK chain 3: DIQLTQSPSTLSASVGDRVTITCRASESLDNYGIRFLTWFQQKPGKAPKLLMYAASNQGSGVPSRFSGSGSGTEFTLTISSLQPDDFATYYCQQTKEVPWSFGQGTKVEVKRTVAAPSVFIFPPSDEQLKSGTASVVCLLNNFYPREAKVQWKVDNALQSGNSQESVTEQDSKDSTYSLSSTLTLSKADYEKHKVYACEVTHQGLSSPVTKSFNRGEC
